In patent publication US20120190819A1 (MEDICAL RESEARCH COUNCIL, published 2012):

These binders were tested against T1, SH3 domain of yeast Sho1p (yeast two-hybrid bait, pEG202-Sho1-SH3) (yeast, UniProt P40073 300-367, limits assumed) (assay: yeast two-hybrid screen, confirmed by interaction mating).
T1 construct: domain: SH3 domain; also called Sho1p SH3 domain
Description: Degenerate oligonucleotide cassettes were made by annealing and amplifying P20 and P21 encoding a biased library designed around the Pbs2p proline rich sequence ([…]) (SEQ ID NO: 33) that interacts with the SH3 domain of Sho1p. Translation of the cassette gives X(L/V/P/A)N(K/R)PLP(P/S/A)LP(L/V/P/A)X (SEQ ID NO: 34). At the DNA level, this oligonucleotide should give rise to a library with a theoretical complexity of 98,304. The cassette was ligated into STM pJG4-5, and grown up in XL10 Gold cells (Stratagene). The midi-prepped (Qiagen) DNA was used to create a yeast library of 6×10⁴ cells in EGY48, theoretically covering 60% of the sequences encoded by the library. These cells were mated with EGY42 cells carrying pEG202-Sho1-SH3, made as described above. Interactors were selected on -UHTL/X-Gal/Gal-Raff plates for 4 days, picked and the plasmids rescued into E. coli KC8 cells. The plasmids were transformed back into EGY48 to confirm interaction with the SH3 domain of Sho1p in EGY42 using an interaction-mating matrix.

T1 sequence (P40073 300-367 limits assumed): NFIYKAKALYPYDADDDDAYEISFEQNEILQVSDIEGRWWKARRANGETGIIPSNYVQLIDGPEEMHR

Binder | binding result
STM peptide aptamer 01 (designed binder, Insert (with its GP ends) constrained in STM) MIPWGLSEAKPATPEIQEIVDKVKPQLEEKTNETYGKLEAVQYKTQVDAGTNYYIKVRAGDNKYMHLKVFNGPVPNKPLPALPVIGPGVNKPLPALPAHGPIRNKPLPSLPASGPPGQNEDLVLTGYQVDKNKDDELTGF | binds
STM peptide aptamer 09 (designed binder, Insert (with its GP ends) constrained in STM) MIPWGLSEAKPATPEIQEIVDKVKPQLEEKTNETYGKLEAVQYKTQVDAGTNYYIKVRAGDNKYMHLKVFNGPMLNKPLPSLPVGGPGLNKPLPSLPAAGPPGQNEDLVLTGYQVDKNKDDELTGF | binds
STM peptide aptamer 06 (designed binder, Insert (with its GP ends) constrained in STM) MIPWGLSEAKPATPEIQEIVDKVKPQLEEKTNETYGKLEAVQYKTQVDAGTNYYIKVRAGDNKYMHLKVFNGPVVNKPLPSLPVKGPDVNKPLPSLPAVGPPGQNEDLVLTGYQVDKNKDDELTGF | binds
STM peptide aptamer 07 (designed binder, Insert (with its GP ends) constrained in STM) MIPWGLSEAKPATPEIQEIVDKVKPQLEEKTNETYGKLEAVQYKTQVDAGTNYYIKVRAGDNKYMHLKVFNGPPNVKPLPALPLMGPLLNKPLPALPLDGPPGQNEDLVLTGYQVDKNKDDELTGF | binds
STM peptide aptamer 08 (designed binder, Insert (with its GP ends) constrained in STM) MIPWGLSEAKPATPEIQEIVDKVKPQLEEKTNETYGKLEAVQYKTQVDAGTNYYIKVRAGDNKYMHLKVFNGPDPNRPLPSLPVTGPYLNKPLPALPVSGPPGQNEDLVLTGYQVDKNKDDELTGF | binds

Next, values leading:

binding result | Binder
binds | STM peptide aptamer 04 (designed binder, Insert (with its GP ends) constrained in STM) MIPWGLSEAKPATPEIQEIVDKVKPQLEEKTNETYGKLEAVQYKTQVDAGTNYYIKVRAGDNKYMHLKVFNGPYLNRPLPSLPAYGPWVNRPLPSLPLSGPPGQNEDLVLTGYQVDKNKDDELTGF
binds | STM peptide aptamer 02 (designed binder, Insert (with its GP ends) constrained in STM) MIPWGLSEAKPATPEIQEIVDKVKPQLEEKTNETYGKLEAVQYKTQVDAGTNYYIKVRAGDNKYMHLKVFNGPVLNKPLPSLPVMGPTPNKPLPPLPAAGPPGQNEDLVLTGYQVDKNKDDELTGF

These binders were tested against T1, SH3 domain of yeast Sho1p (yeast …) (assay: yeast two-hybrid, Sho1-SH3 binding).
Description: We noted that other peptides containing a leucine at −5 (such as Apt03 and 05) were not inhibitory. Unlike AptA, these two peptide aptamers are constrained. To test the idea that constraint prevents the PPII helix of peptide aptamers such as Apt03 and 05 from productive interaction with Sho1 SH3, we replaced the C-terminal stop codon of AptA with codons encoding each amino acid residue in turn to make AptA a full-length peptide aptamer constrained in STM. After re-constraint, only one of the seven amino acid residues P, V, C, D, H, F and W at +5 allow binding to Sho1 SH3 in the context of a constrained protein (Table IV). This contrasts with the findings of Feng et al [Feng S, Chen J K, Yu H, Simon J A, Schreiber S L. 1994. Two binding orientations for peptides to the Src SH3 domain: development of a general model for SH3-ligand interactions. Science. 266: 1241-7] and Rickles et al [Rickles R J, Botfield M C, Zhou X M, Henry P A, Brugge J S, Zoller M J. 1995. Phage display selection of ligand residues important for Src homology 3 domain binding specificity. Proc Natl Acad Sci USA. […] In addition, none of the constrained AptA variants show the ability to inhibit Pbs2-Hog1 activation (Table IV). […] They further indicate that in the context of STM, the presence of one of the 7 permissive residues at position +5 either allows the formation of a left handed type II polyproline helix or allows interaction at a surface on Sho1 distinct from the SH3 domain.

Binder | binding result
re-constrained AptA, RLNKPLPSLPVH in full-length STM (designed binder, Stop codon of AptA replaced, making a full-length aptamer constrained in STM) MIPWGLSEAKPATPEIQEIVDKVKPQLEEKTNETYGKLEAVQYKTQVDAGTNYYIKVRAGDNKYMHLKVFNGPRLNKPLPSLPVHGPPGQNEDLVLTGYQVDKNKDDELTGF | binds
re-constrained AptA, RLNKPLPSLPVE in full-length STM (designed binder, Stop codon of AptA replaced, making a full-length aptamer constrained in STM) MIPWGLSEAKPATPEIQEIVDKVKPQLEEKTNETYGKLEAVQYKTQVDAGTNYYIKVRAGDNKYMHLKVFNGPRLNKPLPSLPVEGPPGQNEDLVLTGYQVDKNKDDELTGF | no binding
re-constrained AptA, RLNKPLPSLPVS in full-length STM (designed binder, Stop codon of AptA replaced, making a full-length aptamer constrained in STM) MIPWGLSEAKPATPEIQEIVDKVKPQLEEKTNETYGKLEAVQYKTQVDAGTNYYIKVRAGDNKYMHLKVFNGPRLNKPLPSLPVSGPPGQNEDLVLTGYQVDKNKDDELTGF | no binding
re-constrained AptA, RLNKPLPSLPVR in full-length STM (designed binder, Stop codon of AptA replaced, making a full-length aptamer constrained in STM) MIPWGLSEAKPATPEIQEIVDKVKPQLEEKTNETYGKLEAVQYKTQVDAGTNYYIKVRAGDNKYMHLKVFNGPRLNKPLPSLPVRGPPGQNEDLVLTGYQVDKNKDDELTGF | no binding
re-constrained AptA, RLNKPLPSLPVI in full-length STM (designed binder, Stop codon of AptA replaced, making a full-length aptamer constrained in STM) MIPWGLSEAKPATPEIQEIVDKVKPQLEEKTNETYGKLEAVQYKTQVDAGTNYYIKVRAGDNKYMHLKVFNGPRLNKPLPSLPVIGPPGQNEDLVLTGYQVDKNKDDELTGF | no binding
re-constrained AptA, RLNKPLPSLPVL in full-length STM (designed binder, Stop codon of AptA replaced, making a full-length aptamer constrained in STM) MIPWGLSEAKPATPEIQEIVDKVKPQLEEKTNETYGKLEAVQYKTQVDAGTNYYIKVRAGDNKYMHLKVFNGPRLNKPLPSLPVLGPPGQNEDLVLTGYQVDKNKDDELTGF | no binding
re-constrained AptA, RLNKPLPSLPVN in full-length STM (designed binder, Stop codon of AptA replaced, making a full-length aptamer constrained in STM) MIPWGLSEAKPATPEIQEIVDKVKPQLEEKTNETYGKLEAVQYKTQVDAGTNYYIKVRAGDNKYMHLKVFNGPRLNKPLPSLPVNGPPGQNEDLVLTGYQVDKNKDDELTGF | binds
re-constrained AptA, RLNKPLPSLPVQ in full-length STM (designed binder, Stop codon of AptA replaced, making a full-length aptamer constrained in STM) MIPWGLSEAKPATPEIQEIVDKVKPQLEEKTNETYGKLEAVQYKTQVDAGTNYYIKVRAGDNKYMHLKVFNGPRLNKPLPSLPVQGPPGQNEDLVLTGYQVDKNKDDELTGF | no binding
re-constrained AptA, RLNKPLPSLPVM in full-length STM (designed binder, Stop codon of AptA replaced, making a full-length aptamer constrained in STM) MIPWGLSEAKPATPEIQEIVDKVKPQLEEKTNETYGKLEAVQYKTQVDAGTNYYIKVRAGDNKYMHLKVFNGPRLNKPLPSLPVMGPPGQNEDLVLTGYQVDKNKDDELTGF | no binding
re-constrained AptA, RLNKPLPSLPVC in full-length STM (designed binder, Stop codon of AptA replaced, making a full-length aptamer constrained in STM) MIPWGLSEAKPATPEIQEIVDKVKPQLEEKTNETYGKLEAVQYKTQVDAGTNYYIKVRAGDNKYMHLKVFNGPRLNKPLPSLPVCGPPGQNEDLVLTGYQVDKNKDDELTGF | binds
re-constrained AptA, RLNKPLPSLPVT in full-length STM (designed binder, Stop codon of AptA replaced, making a full-length aptamer constrained in STM) MIPWGLSEAKPATPEIQEIVDKVKPQLEEKTNETYGKLEAVQYKTQVDAGTNYYIKVRAGDNKYMHLKVFNGPRLNKPLPSLPVTGPPGQNEDLVLTGYQVDKNKDDELTGF | no binding
re-constrained AptA, RLNKPLPSLPVY in full-length STM (designed binder, Stop codon of AptA replaced, making a full-length aptamer constrained in STM) MIPWGLSEAKPATPEIQEIVDKVKPQLEEKTNETYGKLEAVQYKTQVDAGTNYYIKVRAGDNKYMHLKVFNGPRLNKPLPSLPVYGPPGQNEDLVLTGYQVDKNKDDELTGF | no binding
re-constrained AptA, RLNKPLPSLPVV in full-length STM (designed binder, Stop codon of AptA replaced, making a full-length aptamer constrained in STM) MIPWGLSEAKPATPEIQEIVDKVKPQLEEKTNETYGKLEAVQYKTQVDAGTNYYIKVRAGDNKYMHLKVFNGPRLNKPLPSLPVVGPPGQNEDLVLTGYQVDKNKDDELTGF | binds

Next, values leading:

binding result | Binder
binds | control peptide aptamer RLNKPLPSLPVG* (truncated STM) (designed binder, Ends at a stop codon after the added G (unconstrained control)) MIPWGLSEAKPATPEIQEIVDKVKPQLEEKTNETYGKLEAVQYKTQVDAGTNYYIKVRAGDNKYMHLKVFNGPRLNKPLPSLPVG
binds | re-constrained AptA, RLNKPLPSLPVK in full-length STM (designed binder, Stop codon of AptA replaced, making a full-length aptamer constrained in STM) MIPWGLSEAKPATPEIQEIVDKVKPQLEEKTNETYGKLEAVQYKTQVDAGTNYYIKVRAGDNKYMHLKVFNGPRLNKPLPSLPVKGPPGQNEDLVLTGYQVDKNKDDELTGF
binds | re-constrained AptA, RLNKPLPSLPVF in full-length STM (designed binder, Stop codon of AptA replaced, making a full-length aptamer constrained in STM) MIPWGLSEAKPATPEIQEIVDKVKPQLEEKTNETYGKLEAVQYKTQVDAGTNYYIKVRAGDNKYMHLKVFNGPRLNKPLPSLPVFGPPGQNEDLVLTGYQVDKNKDDELTGF
binds | re-constrained AptA, RLNKPLPSLPVW in full-length STM (designed binder, Stop codon of AptA replaced, making a full-length aptamer constrained in STM) MIPWGLSEAKPATPEIQEIVDKVKPQLEEKTNETYGKLEAVQYKTQVDAGTNYYIKVRAGDNKYMHLKVFNGPRLNKPLPSLPVWGPPGQNEDLVLTGYQVDKNKDDELTGF
no binding | re-constrained AptA, RLNKPLPSLPVG in full-length STM (designed binder, Stop codon of AptA replaced, making a full-length aptamer constrained in STM) MIPWGLSEAKPATPEIQEIVDKVKPQLEEKTNETYGKLEAVQYKTQVDAGTNYYIKVRAGDNKYMHLKVFNGPRLNKPLPSLPVGGPPGQNEDLVLTGYQVDKNKDDELTGF
no binding | re-constrained AptA, RLNKPLPSLPVA in full-length STM (designed binder, Stop codon of AptA replaced, making a full-length aptamer constrained in STM) MIPWGLSEAKPATPEIQEIVDKVKPQLEEKTNETYGKLEAVQYKTQVDAGTNYYIKVRAGDNKYMHLKVFNGPRLNKPLPSLPVAGPPGQNEDLVLTGYQVDKNKDDELTGF
binds | re-constrained AptA, RLNKPLPSLPVP in full-length STM (designed binder, Stop codon of AptA replaced, making a full-length aptamer constrained in STM) MIPWGLSEAKPATPEIQEIVDKVKPQLEEKTNETYGKLEAVQYKTQVDAGTNYYIKVRAGDNKYMHLKVFNGPRLNKPLPSLPVPGPPGQNEDLVLTGYQVDKNKDDELTGF
